B1: TBC1 domain family member 5 (Homo sapiens), Q92609 (parent)
chain: MYHSLSETRHPLQPEEQEVGIDPLSSYSNKSGGDSNKNGRRTSSTLDSEGTFNSYRKEWEELFVNNNYLATIRQKGINGQLRSSRFRSICWKLFLCVLPQDKSQWISRIEELRAWYSNIKEIHITNPRKVVGQQDLMINNPLSQDEGSLWNKFFQDKELRSMIEQDVKRTFPEMQFFQQENVRKILTDVLFCYARENEQLLYKQGMHELLAPIVFVLHCDHQAFLHASESAQPSEEMKTVLNPEYLEHDAYAVFSQLMETAEPWFSTFEHDGQKGKETLMTPIPFARPQDLGPTIAIVTKVNQIQDHLLKKHDIELYMHLNRLEIAPQIYGLRWVRLLFGREFPLQDLLVVWDALFADGLSLGLVDYIFVAMLLYIRDALISSNYQTCLGLLMHYPFIGDVHSLILKALFLRDPKRNPRPVTYQFHPNLDYYKARGADLMNKSRTNAKGAPLNINKVSNSLINFGRKLISPAMAPGSAGGPVPGGNSSSSSSVVIPTRTSAEAPSHHLQQQQQQQRLMKSESMPVQLNKGLSSKNISSSPSVESLPGGREFTGSPPSSATKKDSFFSNISRSRSHSKTMGRKESEEELEAQISFLQGQLNDLDAMCKYCAKVMDTHLVNIQDVILQENLEKEDQILVSLAGLKQIKDILKGSLRFNQSQLEAEENEQITIADNHYCSSGQGQGRGQGQSVQMSGAIKQASSETPGCTDRGNSDDFILISKDDDGSSARGSFSGQAQPLRTLRSTSGKSQAPVCSPLVFSDPLMGPASASSSNPSSSPDDDSSKDSGFTIVSPLDI
B2: WASH complex subunit 3 (Homo sapiens), Q9Y3C0 (parent)
chain: MDEDGLPLMGSGIDLTKVPAIQQKRTVAFLNQFVVHTVQFLNRFSTVCEEKLADLSLRIQQIETTLNILDAKLSSIPGLDDVTVEVSPLNVTSVTNGAHPEATSEQPQQNSTQDSGLQESEVSAENILTVAKDPRYARYLKMVQVGVPVMAIRNKMISEGLDPDLLERPDAPVPDGESEKTVEESSDSESSFSD
partner: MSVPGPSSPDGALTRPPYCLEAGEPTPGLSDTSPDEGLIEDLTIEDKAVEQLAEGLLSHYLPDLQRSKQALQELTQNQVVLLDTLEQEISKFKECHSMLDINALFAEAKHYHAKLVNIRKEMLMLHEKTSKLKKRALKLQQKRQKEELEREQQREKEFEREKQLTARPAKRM
B3: Retinoic acid receptor beta (Homo sapiens), P10826-2 (parent)
chain: MFDCMDVLSVSPGQILDFYTASPSSCMLQEKALKACFSGLTQTEWQHRHTAQSIETQSTSSEELVPSPPSPLPPPRVYKPCFVCQDKSSGYHYGVSACEGCKGFFRRSIQKNMIYTCHRDKNCVINKVTRNRCQYCRLQKCFEVGMSKESVRNDRNKKKKETSKQECTESYEMTAELDDLTEKIRKAHQETFPSLCQLGKYTTNSSADHRVRLDLGLWDKFSELATKCIIKIVEFAKRLPGFTGLTIADQITLLKAACLDILILRICTRYTPEQDTMTFSDGLTLNRTQMHNAGFGPLTDLVFTFANQLLPLEMDDTETGLLSAICLICGDRQDLEEPTKVDKLQEPLLEALKIYIRKRRPSKPHMFPKILMKITDLRSISAKGAERVITLKMEIPGSMPPLIQEMLENSEGHEPLTPSSSGNTAEHSPSISPSSVENSGVSQSPLVQ
partner: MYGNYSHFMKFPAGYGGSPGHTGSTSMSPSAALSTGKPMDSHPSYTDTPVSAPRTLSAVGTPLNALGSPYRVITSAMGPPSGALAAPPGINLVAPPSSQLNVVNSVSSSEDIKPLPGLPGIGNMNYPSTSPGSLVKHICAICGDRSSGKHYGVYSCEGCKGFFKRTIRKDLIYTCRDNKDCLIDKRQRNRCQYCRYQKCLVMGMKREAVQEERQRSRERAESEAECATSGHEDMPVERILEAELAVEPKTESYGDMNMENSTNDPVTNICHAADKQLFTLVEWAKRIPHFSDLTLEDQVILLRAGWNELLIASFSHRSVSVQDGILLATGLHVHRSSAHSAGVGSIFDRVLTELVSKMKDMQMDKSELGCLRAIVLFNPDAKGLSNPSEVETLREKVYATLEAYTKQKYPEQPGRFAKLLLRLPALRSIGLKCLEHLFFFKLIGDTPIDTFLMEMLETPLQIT
B4: WD repeat domain-containing protein 83 (Homo sapiens), Q9BRX9 (parent)
chain: MAFPEPKPRPPELPQKRLKTLDCGQGAVRAVRFNVDGNYCLTCGSDKTLKLWNPLRGTLLRTYSGHGYEVLDAAGSFDNSSLCSGGGDKAVVLWDVASGQVVRKFRGHAGKVNTVQFNEEATVILSGSIDSSIRCWDCRSRRPEPVQTLDEARDGVSSVKVSDHEILAGSVDGRVRRYDLRMGQLFSDYVGSPITCTCFSRDGQCTLVSSLDSTLRLLDKDTGELLGEYKGHKNQEYKLDCCLSERDTHVVSCSEDGKVFFWDLVEGALALALPVGSGVVQSLAYHPTEPCLLTAMGGSVQCWREEAYEAEDGAG
B5: Notch homolog 2 N-terminal-like protein A (Homo sapiens), Q7Z3S9 (parent)
chain: MCVTYHNGTGYCKCPEGFLGEYCQHRDPCEKNRCQNGGTCVAQAMLGKATCRCASGFTGEDCQYSTSHPCFVSRPCLNGGTCHMLSRDTYECTCQVGFTGKECQWTDACLSHPCANGSTCTTVANQFSCKCLTGFTGQKCETDVNECDIPGHCQHGGTCLNLPGSYQCQCLQGFTGQYCDSLYVPCAPSPCVNGGTCRQTGDFTFECNCLPETVRRGTELWERDREVWNGKEHDEN
partner: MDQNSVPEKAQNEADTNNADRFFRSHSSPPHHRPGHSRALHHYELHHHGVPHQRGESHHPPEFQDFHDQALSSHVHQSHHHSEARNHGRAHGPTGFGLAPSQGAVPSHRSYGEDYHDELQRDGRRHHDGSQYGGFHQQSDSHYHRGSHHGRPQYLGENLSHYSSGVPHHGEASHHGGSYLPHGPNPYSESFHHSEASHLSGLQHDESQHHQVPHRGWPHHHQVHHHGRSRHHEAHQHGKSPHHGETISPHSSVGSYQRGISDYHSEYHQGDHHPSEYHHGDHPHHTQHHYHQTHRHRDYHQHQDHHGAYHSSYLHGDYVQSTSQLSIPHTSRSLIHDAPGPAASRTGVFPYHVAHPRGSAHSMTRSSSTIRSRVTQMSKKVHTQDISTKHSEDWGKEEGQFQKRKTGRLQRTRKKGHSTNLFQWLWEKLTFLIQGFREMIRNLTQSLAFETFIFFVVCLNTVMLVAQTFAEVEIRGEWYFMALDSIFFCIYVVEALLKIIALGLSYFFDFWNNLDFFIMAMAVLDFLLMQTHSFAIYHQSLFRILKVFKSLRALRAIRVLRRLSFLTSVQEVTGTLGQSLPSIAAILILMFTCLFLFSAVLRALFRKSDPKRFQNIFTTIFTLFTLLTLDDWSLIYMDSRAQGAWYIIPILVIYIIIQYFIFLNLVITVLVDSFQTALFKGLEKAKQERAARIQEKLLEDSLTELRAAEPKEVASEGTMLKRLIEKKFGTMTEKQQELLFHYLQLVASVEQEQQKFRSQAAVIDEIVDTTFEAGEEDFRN
B6: Putative RNA-binding protein Luc7-like 2 (Homo sapiens), Q9Y383 (parent)
chain: MSAQAQMRAMLDQLMGTSRDGDTTRQRIKFSDDRVCKSHLLNCCPHDVLSGTRMDLGECLKVHDLALRADYEIASKEQDFFFELDAMDHLQSFIADCDRRTEVAKKRLAETQEEISAEVAAKAERVHELNEEIGKLLAKVEQLGAEGNVEESQKVMDEVEKARAKKREAEEVYRNSMPASSFQQQKLRVCEVCSAYLGLHDNDRRLADHFGGKLHLGFIEIREKLEELKRVVAEKQEKRNQERLKRREEREREEREKLRRSRSHSKNPKRSRSREHRRHRSRSMSRERKRRTRSKSREKRHRHRSRSSSRSRSRSHQRSRHSSRDRSRERSKRRSSKERFRDQDLASCDRDRSSRDRSPRDRDRKDKKRSYESANGRSEDRRSSEEREAGEI
partner: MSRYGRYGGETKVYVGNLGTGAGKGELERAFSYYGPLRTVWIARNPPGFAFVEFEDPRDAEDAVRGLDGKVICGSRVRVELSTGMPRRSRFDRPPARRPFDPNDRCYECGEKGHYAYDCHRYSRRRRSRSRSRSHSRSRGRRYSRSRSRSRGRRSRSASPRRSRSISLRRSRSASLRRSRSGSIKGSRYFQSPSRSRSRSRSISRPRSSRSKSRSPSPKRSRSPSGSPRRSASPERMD
B7: U3 small nucleolar RNA-associated protein 14 homolog C (Homo sapiens), Q5TAP6 (parent)
chain: MNVNQVAENLALSHQEELVDLPKNYPLSENEDEGDSDGERKHQKLLEAIISLDGKNRRKLAERSEASLKVSEFSVSSEGSGEKLGLADLLEPVKTSSSLATVKKQLNRVKSKKVVELPLNKEKIEQIHREVAFSKTSQVLSKWDPIILKNQQAEQLVFPLGKEQPAIAPIEHALSGWKARTPLEQEIFNLLHKNKQPVTDPLLTPMEKASLQAMSLEEAKMHRAELQRARALQSYYEAKARKEKKIKSKKYHKVVKKGKAKKALKEFEQLQKVNPTVALEEMEKIENARMMERMSLKHQNSGKWAKSKAIMAKYDLEARQAMQEQLAKNKELTQKLQVASESEEEEGGTEVEELLVPHVANEVQMNVDGPNPWMFRSCTSDTKEAATQEDPEQVPELAAHEVSASEAEERPVAEEEILLREFEERQSLRKRSELNQDAEPASSQETKDSSSQEVLSELRALSQKLKEKHQSRKQKASSEGTVPQVQREEPAPEEAEPLLLQRSERVQTLEELEELGKEDCFQNKELPRPVLEGQQSERTPNNRPDAPKEKKEKEQLINLQNFLTTQSPSVRSLAVPTIIEELEDEEERDQRQMIKEAFAGDDVIRDFLKEKREAVEASKPKDVDLTLPGWGEWGGVGLKPSAKKRRQFLIKAPEGPPRKDKNLPNVIISEKRNIHAAAHQVQVLPYPFTHHRQFERTIQTPIGSTWNTQRAFQKLTTPKVVTKPGHIIKPIKAEDVGYQSSSRSDLPVIQRNPKRITTRHNKEEKL
partner: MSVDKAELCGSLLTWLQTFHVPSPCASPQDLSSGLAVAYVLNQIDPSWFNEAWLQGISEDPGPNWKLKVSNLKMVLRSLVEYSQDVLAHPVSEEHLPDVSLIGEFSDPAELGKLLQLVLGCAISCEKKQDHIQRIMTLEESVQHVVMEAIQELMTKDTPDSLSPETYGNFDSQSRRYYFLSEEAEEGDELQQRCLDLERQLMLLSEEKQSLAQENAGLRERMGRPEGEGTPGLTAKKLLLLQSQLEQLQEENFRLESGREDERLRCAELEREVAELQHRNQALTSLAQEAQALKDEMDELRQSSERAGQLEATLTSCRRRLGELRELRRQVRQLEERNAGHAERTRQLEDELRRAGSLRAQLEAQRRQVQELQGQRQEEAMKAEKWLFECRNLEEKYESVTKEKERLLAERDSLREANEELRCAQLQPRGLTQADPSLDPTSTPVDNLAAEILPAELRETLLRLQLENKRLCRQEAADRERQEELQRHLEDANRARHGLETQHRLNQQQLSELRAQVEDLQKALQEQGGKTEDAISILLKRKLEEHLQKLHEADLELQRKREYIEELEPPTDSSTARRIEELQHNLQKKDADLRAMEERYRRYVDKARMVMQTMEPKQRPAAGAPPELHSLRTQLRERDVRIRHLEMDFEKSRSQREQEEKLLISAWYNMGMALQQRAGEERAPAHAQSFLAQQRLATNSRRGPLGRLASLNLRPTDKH

Variants of: B1
Conditions: with ap2m1_human AP2M1, Q96CW1
ap2m1_human AP2M1, Q96CW1, sequence (Q96CW1 whole entry): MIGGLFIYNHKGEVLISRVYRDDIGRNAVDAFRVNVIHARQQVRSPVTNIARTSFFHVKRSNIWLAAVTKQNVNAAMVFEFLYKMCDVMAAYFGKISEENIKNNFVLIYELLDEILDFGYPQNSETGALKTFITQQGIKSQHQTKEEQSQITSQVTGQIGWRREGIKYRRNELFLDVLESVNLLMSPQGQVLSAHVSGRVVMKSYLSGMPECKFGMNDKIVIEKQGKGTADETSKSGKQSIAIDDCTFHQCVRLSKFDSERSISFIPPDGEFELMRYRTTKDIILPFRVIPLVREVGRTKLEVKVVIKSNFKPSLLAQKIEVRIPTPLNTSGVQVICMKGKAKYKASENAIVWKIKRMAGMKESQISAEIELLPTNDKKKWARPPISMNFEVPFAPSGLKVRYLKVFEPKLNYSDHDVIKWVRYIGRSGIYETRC

Row | effect of a mutation on the interaction | Variant
1 | with no effect | Y375C

Variants of: B2
Conditions: with bl1s6_human BLOC1S6, Q9UL45

Row | effect of a mutation on the interaction | Variant
2 | with no effect | F44L

Variants of: B3
Conditions: with rxrg_human RXRG

Row | effect of a mutation on the interaction | Variant
3 | with no effect | V83I

Variants of: B4
Conditions: with keap1_human KEAP1, Q14145
keap1_human KEAP1, Q14145, sequence (Q14145 whole entry): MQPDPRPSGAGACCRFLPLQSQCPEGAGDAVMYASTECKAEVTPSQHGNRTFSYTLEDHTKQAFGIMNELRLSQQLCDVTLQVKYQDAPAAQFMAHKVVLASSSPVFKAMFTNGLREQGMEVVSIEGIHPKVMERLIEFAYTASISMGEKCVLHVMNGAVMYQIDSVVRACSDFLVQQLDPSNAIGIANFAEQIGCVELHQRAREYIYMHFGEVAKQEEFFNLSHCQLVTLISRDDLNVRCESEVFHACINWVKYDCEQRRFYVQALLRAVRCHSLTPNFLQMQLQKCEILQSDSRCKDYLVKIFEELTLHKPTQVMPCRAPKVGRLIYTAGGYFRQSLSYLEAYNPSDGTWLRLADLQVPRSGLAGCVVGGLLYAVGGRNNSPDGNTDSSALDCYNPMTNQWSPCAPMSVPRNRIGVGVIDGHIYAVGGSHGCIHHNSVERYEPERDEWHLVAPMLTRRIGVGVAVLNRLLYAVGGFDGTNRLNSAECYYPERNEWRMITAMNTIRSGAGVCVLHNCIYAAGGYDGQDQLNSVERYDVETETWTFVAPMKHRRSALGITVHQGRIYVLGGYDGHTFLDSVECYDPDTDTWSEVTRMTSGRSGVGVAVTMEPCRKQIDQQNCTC

Row | effect of a mutation on the interaction | Variant
4 | with no effect | E144Q
5 | with no effect | G278S

Variants of: B5
Conditions: with ctsr1_human CATSPER1, Q8NEC5

Row | effect of a mutation on the interaction | Variant
6 | with no effect | R74Q
7 | with no effect | A115T

Variants of: B6
Conditions: with srsf7_human SRSF7, Q16629

Row | effect of a mutation on the interaction | Variant
8 | with no effect | K368Q

Variants of: B7
Conditions: with hook2_human HOOK2, Q96ED9

Row | effect of a mutation on the interaction | Variant
9 | with no effect | I170V
10 | with no effect | G85V
11 | with no effect | K247E
